Measurements from paper PMC3615140 (Molecular cell, 2013).
Blank lines part the entries; values can stand above or below the binder they belong to.

What was measured:
FLAG-Spp1 (purified) = target: T1, FLAG-Spp1 (purified) (S. cerevisiae, UniProt Q03012 1-353); experiment: pull-down
T1 sequence (looked up): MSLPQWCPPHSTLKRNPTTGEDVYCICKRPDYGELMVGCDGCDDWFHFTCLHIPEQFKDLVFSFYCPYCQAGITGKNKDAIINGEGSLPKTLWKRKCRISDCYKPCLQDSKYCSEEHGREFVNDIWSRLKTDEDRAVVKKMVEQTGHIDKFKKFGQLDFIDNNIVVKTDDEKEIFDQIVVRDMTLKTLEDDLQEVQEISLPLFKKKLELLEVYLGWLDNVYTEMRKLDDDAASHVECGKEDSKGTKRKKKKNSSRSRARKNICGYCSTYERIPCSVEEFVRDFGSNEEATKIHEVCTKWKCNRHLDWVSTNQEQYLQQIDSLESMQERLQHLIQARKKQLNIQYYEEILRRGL

FLAG-Set1 (full length) [1] = target: T2, FLAG-Set1 (full length) (S. cerevisiae, UniProt P38827 1-1080); experiment: SEC
T2 sequence (looked up): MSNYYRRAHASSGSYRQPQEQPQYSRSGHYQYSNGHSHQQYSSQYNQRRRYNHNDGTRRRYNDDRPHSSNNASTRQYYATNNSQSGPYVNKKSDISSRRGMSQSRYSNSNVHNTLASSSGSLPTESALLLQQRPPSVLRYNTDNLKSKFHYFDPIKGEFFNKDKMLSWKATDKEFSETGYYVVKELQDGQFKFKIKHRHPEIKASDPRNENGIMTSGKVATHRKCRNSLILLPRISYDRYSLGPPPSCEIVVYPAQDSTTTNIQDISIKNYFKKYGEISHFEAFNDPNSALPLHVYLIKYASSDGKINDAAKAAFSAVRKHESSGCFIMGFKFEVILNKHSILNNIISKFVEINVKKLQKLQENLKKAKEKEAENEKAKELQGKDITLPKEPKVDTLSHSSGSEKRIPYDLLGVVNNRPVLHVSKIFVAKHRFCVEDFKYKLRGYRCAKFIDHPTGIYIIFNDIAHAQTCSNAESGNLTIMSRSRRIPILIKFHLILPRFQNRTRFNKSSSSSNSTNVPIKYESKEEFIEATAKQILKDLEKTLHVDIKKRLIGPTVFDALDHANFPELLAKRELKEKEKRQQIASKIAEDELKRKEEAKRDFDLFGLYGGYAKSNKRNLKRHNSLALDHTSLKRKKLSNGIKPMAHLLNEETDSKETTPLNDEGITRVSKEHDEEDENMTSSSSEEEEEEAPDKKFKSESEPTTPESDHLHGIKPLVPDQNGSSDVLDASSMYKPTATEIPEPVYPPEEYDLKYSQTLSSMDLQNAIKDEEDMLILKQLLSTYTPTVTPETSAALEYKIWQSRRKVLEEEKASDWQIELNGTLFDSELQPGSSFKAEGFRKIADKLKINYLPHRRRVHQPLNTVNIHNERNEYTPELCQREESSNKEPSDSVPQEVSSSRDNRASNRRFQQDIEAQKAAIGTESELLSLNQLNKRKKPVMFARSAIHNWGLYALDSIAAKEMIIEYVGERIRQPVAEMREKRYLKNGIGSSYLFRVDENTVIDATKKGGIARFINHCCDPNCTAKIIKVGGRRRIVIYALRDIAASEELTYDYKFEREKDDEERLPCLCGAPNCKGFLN

[2] = target: T3, GST-Set1 fragment, residues 356–568 (S. cerevisiae, UniProt P38827 356-568); experiment: pull-down
T3 sequence (looked up): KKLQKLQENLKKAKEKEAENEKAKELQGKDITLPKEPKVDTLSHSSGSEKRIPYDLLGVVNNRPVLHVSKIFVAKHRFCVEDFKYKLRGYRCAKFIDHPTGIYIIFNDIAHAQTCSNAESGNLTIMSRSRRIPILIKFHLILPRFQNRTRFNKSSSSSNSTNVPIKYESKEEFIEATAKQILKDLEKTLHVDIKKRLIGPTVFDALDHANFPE

FLAG-Swd2 (purified) = target: T4, FLAG-Swd2 (purified) (S. cerevisiae, UniProt P36104 1-329); experiment: pull-down
T4 sequence (looked up): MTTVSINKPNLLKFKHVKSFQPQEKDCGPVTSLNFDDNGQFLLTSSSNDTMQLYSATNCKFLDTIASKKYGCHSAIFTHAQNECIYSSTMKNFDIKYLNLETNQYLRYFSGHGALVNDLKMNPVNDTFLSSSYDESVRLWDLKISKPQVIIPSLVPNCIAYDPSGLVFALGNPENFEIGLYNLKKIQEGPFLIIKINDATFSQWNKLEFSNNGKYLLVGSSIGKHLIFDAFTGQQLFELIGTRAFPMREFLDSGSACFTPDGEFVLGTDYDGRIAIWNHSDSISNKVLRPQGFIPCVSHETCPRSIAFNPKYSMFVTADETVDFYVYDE

FLAG-Set1 (full length) [3] = target: T2, FLAG-Set1 (full length); experiment: affinity co-purification by the FLAG tag
FLAG-Set1 (full length) [4] = target: T2, FLAG-Set1 (full length); experiment: affinity co-purification by the FLAG tag; remark: listed apart in the source

binding result (FLAG-Swd2 (purified)): binds
B6: GST-Set1 fragment, residues 1–229 (domain or fragment, S. cerevisiae, UniProt P38827 1-229, looked up)
chain: MSNYYRRAHASSGSYRQPQEQPQYSRSGHYQYSNGHSHQQYSSQYNQRRRYNHNDGTRRRYNDDRPHSSNNASTRQYYATNNSQSGPYVNKKSDISSRRGMSQSRYSNSNVHNTLASSSGSLPTESALLLQQRPPSVLRYNTDNLKSKFHYFDPIKGEFFNKDKMLSWKATDKEFSETGYYVVKELQDGQFKFKIKHRHPEIKASDPRNENGIMTSGKVATHRKCRNSL

binding result (FLAG-Set1 (full length) [3]): binds
B7: Swd3 (natural protein, S. cerevisiae, UniProt P38123 1-315, looked up)
chain: MFQFVTPVGTQNGLKATCAKISPDGQFLAITQGLNILIYDINRRTVSQTLVTSHARPFSELCWSPDGQCIATASDDFSVEIIHLSYGLLHTFIGHTAPVISLTFNRKGNLLFTSSMDESIKIWDTLNGSLMKTISAHSEAVVSVDVPMNDSSILSSGSYDGLIRIFDAETGHCLKTLTYDKDWKRENGVVPISQVKFSENARYLLVKSLDGVVKIWDCIGGCVVRTFQVQPLEKGVLHHSCGMDFLNPEDGSTPLVISGYENGDIYCWNSDTKSLLQLLDGSLYHHSSPVMSIHCFGNIMCSLALNGDCCLWRWV

binding result (FLAG-Set1 (full length) [4]): binds
B8: Swd1 (natural protein, S. cerevisiae, UniProt P39706 1-426, looked up)
chain: MNILLQDPFAVLKEHPEKLTHTIENPLRTECLQFSPCGDYLALGCANGALVIYDMDTFRPICVPGNMLGAHVRPITSIAWSPDGRLLLTSSRDWSIKLWDLSKPSKPLKEIRFDSPIWGCQWLDAKRRLCVATIFEESDAYVIDFSNDPVASLLSKSDEKQLSSTPDHGYVLVCTVHTKHPNIIIVGTSKGWLDFYKFHSLYQTECIHSLKITSSNIKHLIVSQNGERLAINCSDRTIRQYEISIDDENSAVELTLEHKYQDVINKLQWNCILFSNNTAEYLVASTHGSSAHELYIWETTSGTLVRVLEGAEEELIDINWDFYSMSIVSNGFESGNVYVWSVVIPPKWSALAPDFEEVEENVDYLEKEDEFDEVDEAEQQQGLEQEEEIAIDLRTREQYDVRGNNLLVERFTIPTDYTRIIKMQSS

The remaining lines, values behind:

B1: GST-n-SET (Set1 residues 762–937) (domain or fragment, S. cerevisiae, UniProt P38827 762-937, looked up)
chain: MDLQNAIKDEEDMLILKQLLSTYTPTVTPETSAALEYKIWQSRRKVLEEEKASDWQIELNGTLFDSELQPGSSFKAEGFRKIADKLKINYLPHRRRVHQPLNTVNIHNERNEYTPELCQREESSNKEPSDSVPQEVSSSRDNRASNRRFQQDIEAQKAAIGTESELLSLNQLNKRK
binding result (FLAG-Spp1 (purified)): binds

B2: Swd2 (natural protein, S. cerevisiae, UniProt P36104 1-329, looked up)
chain: MTTVSINKPNLLKFKHVKSFQPQEKDCGPVTSLNFDDNGQFLLTSSSNDTMQLYSATNCKFLDTIASKKYGCHSAIFTHAQNECIYSSTMKNFDIKYLNLETNQYLRYFSGHGALVNDLKMNPVNDTFLSSSYDESVRLWDLKISKPQVIIPSLVPNCIAYDPSGLVFALGNPENFEIGLYNLKKIQEGPFLIIKINDATFSQWNKLEFSNNGKYLLVGSSIGKHLIFDAFTGQQLFELIGTRAFPMREFLDSGSACFTPDGEFVLGTDYDGRIAIWNHSDSISNKVLRPQGFIPCVSHETCPRSIAFNPKYSMFVTADETVDFYVYDE
binding result (FLAG-Set1 (full length) [1]): binds

B3: Spp1 (natural protein, S. cerevisiae, UniProt Q03012 1-353, looked up)
chain: MSLPQWCPPHSTLKRNPTTGEDVYCICKRPDYGELMVGCDGCDDWFHFTCLHIPEQFKDLVFSFYCPYCQAGITGKNKDAIINGEGSLPKTLWKRKCRISDCYKPCLQDSKYCSEEHGREFVNDIWSRLKTDEDRAVVKKMVEQTGHIDKFKKFGQLDFIDNNIVVKTDDEKEIFDQIVVRDMTLKTLEDDLQEVQEISLPLFKKKLELLEVYLGWLDNVYTEMRKLDDDAASHVECGKEDSKGTKRKKKKNSSRSRARKNICGYCSTYERIPCSVEEFVRDFGSNEEATKIHEVCTKWKCNRHLDWVSTNQEQYLQQIDSLESMQERLQHLIQARKKQLNIQYYEEILRRGL
binding result (FLAG-Set1 (full length) [1]): binds

B4: Shg1 (natural protein, S. cerevisiae, UniProt P38337 1-142, looked up)
chain: MAYNQEDSKRLSDKYKKEGHFDKLKREILSNPWNNTEENSESFEQALRKRVASTVKEMVNEDEELIFKNRGLTSALIESQLVKDNYLKLGSKMEGDNGDGEKKFDLDVYVRSKLQDPKLLEMIKGQLQETLNSYEEEANGST
binding result (FLAG-Set1 (full length) [1]): binds

B5: FLAG-Shg1 (purified) (natural protein, S. cerevisiae, UniProt P38337 1-142, looked up)
chain: MAYNQEDSKRLSDKYKKEGHFDKLKREILSNPWNNTEENSESFEQALRKRVASTVKEMVNEDEELIFKNRGLTSALIESQLVKDNYLKLGSKMEGDNGDGEKKFDLDVYVRSKLQDPKLLEMIKGQLQETLNSYEEEANGST
binding result [2]: binds
